Reference: patent US20110136740A1 (Stanford University, published 2011)
Ends that are not written are not given here.

Assays:
[1] = molecular target: αIIbβ3 integrin on human platelets (human) (UniProt P08514); assay: cell-based or functional assay
[2] = molecular target: αIIbβ3 integrin on human platelets (human, UniProt P08514 32-1039; P05106 27-788); assay: cell-based or functional assay
[3] = molecular target: T1, α5β1 integrin naturally expressed on wild-type K562 cells (UniProt P08648 42-1049; P05556 21-798); assay: flow cytometry, direct binding to wild-type K562 cells
T1 construct: whole, on cells
T1 sequence (P08648 42-1049, chain 1 of 2): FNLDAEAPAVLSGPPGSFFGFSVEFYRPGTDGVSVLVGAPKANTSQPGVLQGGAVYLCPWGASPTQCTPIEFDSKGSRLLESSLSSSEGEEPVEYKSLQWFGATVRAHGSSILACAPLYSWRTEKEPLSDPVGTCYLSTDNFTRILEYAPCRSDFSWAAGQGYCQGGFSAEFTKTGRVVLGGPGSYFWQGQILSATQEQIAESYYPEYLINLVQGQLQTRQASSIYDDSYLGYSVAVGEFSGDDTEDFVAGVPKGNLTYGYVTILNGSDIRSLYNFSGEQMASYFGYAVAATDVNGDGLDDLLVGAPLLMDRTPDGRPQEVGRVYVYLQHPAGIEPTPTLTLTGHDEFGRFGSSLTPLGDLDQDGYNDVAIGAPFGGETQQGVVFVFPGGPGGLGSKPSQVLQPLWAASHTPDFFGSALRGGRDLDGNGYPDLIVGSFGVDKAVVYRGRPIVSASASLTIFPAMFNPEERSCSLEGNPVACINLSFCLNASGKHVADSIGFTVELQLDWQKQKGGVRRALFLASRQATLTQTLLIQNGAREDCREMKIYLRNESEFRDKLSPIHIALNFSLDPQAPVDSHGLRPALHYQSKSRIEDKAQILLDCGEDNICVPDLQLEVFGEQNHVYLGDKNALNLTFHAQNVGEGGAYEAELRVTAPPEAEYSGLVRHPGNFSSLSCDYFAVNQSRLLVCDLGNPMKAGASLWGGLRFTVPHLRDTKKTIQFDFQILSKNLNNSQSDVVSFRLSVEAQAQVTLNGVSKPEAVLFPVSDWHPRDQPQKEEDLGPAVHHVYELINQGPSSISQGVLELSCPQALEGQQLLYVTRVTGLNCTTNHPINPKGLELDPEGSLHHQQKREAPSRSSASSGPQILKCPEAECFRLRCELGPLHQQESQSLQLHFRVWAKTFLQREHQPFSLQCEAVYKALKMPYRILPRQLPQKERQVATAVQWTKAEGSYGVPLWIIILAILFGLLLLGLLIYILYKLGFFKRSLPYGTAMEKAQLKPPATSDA
T1 sequence (P05556 21-798, chain 2 of 2): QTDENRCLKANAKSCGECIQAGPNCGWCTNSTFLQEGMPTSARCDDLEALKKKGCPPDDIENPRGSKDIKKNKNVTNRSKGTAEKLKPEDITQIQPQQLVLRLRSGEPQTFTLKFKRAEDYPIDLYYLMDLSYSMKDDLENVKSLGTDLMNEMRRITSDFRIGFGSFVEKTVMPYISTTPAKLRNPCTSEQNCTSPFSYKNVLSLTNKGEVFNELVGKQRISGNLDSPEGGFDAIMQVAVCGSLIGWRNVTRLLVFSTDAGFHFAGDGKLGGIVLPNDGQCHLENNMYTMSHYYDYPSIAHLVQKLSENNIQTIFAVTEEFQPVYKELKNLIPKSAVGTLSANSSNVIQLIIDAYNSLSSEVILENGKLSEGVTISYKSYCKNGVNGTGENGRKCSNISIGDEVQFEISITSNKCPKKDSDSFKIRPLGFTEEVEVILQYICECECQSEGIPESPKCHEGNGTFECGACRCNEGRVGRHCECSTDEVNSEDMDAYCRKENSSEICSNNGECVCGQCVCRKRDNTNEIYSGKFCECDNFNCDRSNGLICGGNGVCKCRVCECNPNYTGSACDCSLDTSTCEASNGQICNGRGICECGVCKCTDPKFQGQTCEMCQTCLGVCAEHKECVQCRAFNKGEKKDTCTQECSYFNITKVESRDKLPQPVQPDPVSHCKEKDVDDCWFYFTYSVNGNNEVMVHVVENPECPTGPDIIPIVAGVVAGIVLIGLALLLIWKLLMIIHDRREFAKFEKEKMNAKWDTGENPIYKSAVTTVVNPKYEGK

[4] = molecular target: T2, αvβ3 integrin expressed on K562-αvβ3 cells (UniProt P06756 31-1048; P05106 27-788); assay: flow cytometry, direct binding to K562-αvβ3 cells, anti-His detection
T2 construct: whole, on cells
T2 sequence (P06756 31-1048, chain 1 of 2): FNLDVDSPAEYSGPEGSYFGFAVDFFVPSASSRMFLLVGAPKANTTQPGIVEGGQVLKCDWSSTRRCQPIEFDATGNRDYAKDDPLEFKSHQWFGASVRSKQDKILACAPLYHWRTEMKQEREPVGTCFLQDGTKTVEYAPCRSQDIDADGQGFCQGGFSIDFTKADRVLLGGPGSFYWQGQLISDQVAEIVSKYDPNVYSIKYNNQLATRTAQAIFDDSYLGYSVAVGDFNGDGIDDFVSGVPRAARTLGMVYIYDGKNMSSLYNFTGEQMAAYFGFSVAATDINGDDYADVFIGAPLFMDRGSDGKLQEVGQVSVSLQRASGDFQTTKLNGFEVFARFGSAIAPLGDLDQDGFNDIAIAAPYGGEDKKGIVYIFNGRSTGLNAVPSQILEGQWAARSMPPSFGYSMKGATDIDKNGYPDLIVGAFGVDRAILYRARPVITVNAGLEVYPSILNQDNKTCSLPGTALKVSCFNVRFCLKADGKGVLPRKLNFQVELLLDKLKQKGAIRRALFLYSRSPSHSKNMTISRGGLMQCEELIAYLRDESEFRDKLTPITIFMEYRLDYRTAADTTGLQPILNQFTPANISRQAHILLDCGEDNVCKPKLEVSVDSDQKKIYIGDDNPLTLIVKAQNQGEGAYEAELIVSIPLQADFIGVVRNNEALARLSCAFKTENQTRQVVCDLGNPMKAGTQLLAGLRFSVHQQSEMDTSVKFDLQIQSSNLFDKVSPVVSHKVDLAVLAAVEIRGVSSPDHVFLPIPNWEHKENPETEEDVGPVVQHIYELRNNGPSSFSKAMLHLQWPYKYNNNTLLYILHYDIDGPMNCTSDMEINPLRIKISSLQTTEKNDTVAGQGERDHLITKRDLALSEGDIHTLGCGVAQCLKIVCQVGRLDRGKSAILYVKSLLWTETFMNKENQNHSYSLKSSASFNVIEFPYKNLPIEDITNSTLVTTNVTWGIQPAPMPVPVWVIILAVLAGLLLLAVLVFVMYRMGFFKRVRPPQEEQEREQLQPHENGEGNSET
T2 sequence (P05106 27-788, chain 2 of 2): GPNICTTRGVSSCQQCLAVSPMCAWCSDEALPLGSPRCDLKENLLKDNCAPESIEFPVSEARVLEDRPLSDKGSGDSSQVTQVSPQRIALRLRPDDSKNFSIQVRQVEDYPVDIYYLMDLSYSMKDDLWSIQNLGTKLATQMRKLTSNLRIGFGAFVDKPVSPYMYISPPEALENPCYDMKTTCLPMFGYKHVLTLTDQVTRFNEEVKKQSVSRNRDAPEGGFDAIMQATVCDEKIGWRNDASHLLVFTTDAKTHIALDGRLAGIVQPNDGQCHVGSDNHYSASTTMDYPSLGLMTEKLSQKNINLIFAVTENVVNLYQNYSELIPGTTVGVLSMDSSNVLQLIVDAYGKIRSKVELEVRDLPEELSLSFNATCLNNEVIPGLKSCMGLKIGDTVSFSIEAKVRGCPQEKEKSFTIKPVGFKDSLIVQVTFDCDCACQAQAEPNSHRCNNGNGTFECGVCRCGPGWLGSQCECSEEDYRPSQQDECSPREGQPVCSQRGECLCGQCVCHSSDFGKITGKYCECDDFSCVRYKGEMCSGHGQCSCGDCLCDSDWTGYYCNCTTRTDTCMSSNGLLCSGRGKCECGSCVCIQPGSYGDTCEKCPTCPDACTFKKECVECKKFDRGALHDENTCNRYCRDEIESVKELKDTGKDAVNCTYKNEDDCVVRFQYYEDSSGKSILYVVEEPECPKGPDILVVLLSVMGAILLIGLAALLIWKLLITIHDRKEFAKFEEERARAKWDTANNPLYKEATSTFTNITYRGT

[5] = molecular target: T3, αvβ5 integrin expressed on K562-αvβ5 cells (UniProt P06756 31-1048; P18084 24-799); assay: flow cytometry, direct binding to K562-αvβ5 cells
T3 construct: whole, on cells
T3 sequence (P06756 31-1048, chain 1 of 2): as the sequence (P06756 31-1048, chain 1 of 2) above
T3 sequence (P18084 24-799, chain 2 of 2): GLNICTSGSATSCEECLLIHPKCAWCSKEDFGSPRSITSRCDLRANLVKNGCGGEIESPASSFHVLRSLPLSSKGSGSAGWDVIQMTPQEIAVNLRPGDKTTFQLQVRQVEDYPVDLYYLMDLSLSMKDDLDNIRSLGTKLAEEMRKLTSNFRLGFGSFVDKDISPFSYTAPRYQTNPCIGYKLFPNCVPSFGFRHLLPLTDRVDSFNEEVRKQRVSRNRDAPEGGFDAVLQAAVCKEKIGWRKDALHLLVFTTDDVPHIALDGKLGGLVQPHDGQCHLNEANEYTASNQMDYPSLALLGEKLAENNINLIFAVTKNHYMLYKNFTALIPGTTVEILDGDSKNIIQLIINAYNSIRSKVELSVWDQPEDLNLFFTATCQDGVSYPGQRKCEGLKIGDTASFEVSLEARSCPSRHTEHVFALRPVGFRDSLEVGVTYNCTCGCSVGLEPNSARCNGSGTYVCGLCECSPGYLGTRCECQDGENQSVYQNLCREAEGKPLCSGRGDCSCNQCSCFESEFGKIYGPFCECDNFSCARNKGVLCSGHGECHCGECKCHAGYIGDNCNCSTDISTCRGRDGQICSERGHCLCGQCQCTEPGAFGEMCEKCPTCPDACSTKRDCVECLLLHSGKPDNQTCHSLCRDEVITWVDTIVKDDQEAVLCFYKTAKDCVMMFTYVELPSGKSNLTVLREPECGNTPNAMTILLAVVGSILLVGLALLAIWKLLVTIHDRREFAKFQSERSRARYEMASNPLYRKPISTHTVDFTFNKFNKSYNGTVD

[6] = molecular target: T4, αIIbβ3 integrin expressed on K562-αIIbβ3 cells (UniProt P08514 32-1039; P05106 27-788); assay: flow cytometry, peptide titrated on K562-αIIbβ3 cells, anti-His detection
T4 construct: whole, on cells; also called cell surface expressed αIIbβ3 integrin; GPIIb-IIIa

[7] = molecular target: T2, αvβ3 integrin expressed on K562-αvβ3 …; assay: flow cytometry, peptide titrated on K562-αvβ3 cells
[8] = molecular target: T2, αvβ3 integrin expressed on K562-αvβ3 …; assay: flow cytometry, peptide titrated on K562-αvβ3 cells, anti-His detection

| Molecule | aggregation (IC50; nM), human platelets [1] [nM] | inhibition of ADP-induced platelet aggregation, IC50 [1] [nM] | aggregation (IC50; nM), human platelets [2] [nM] | binding result [3] | binding result [4] | binding result [5] | Kd [6] [nM] | Kd [7] [nM] | Kd [8] [nM] |
| --- | --- | --- | --- | --- | --- | --- | --- | --- | --- |
| eptifibatide (peptide) | 94 | 80 |  |  |  |  |  |  |  |
| engineered AgRP peptide 2bA (soluble, N-terminal FLAG tag and C-terminal hexahistidine tag) (ends and bridges not checked; cysteine pairing not given here, also called clone 2bA; αIIbβ3-specific peptide 2bA) DYKDDDDKGCVRLHESCLGQQVPCCDPAATCYCLKRGDWKGKCYCRHHHHHH |  |  | 72 | no binding (tested: 1 µM) | no binding (tested: 1 µM) | no binding (tested: 1 µM) | 87 |  |  |
| engineered AgRP peptide 2bJ (soluble, N-terminal FLAG tag and C-terminal hexahistidine tag) (ends and bridges not checked; cysteine pairing not given here, also called clone 2bJ; αIIbβ3-specific peptide 2bJ) DYKDDDDKGCVRLHESCLGQQVPCCDPAATCYCNKRGDWRSKCYCRHHHHHH |  |  | 91 | no binding (tested: 1 µM) | no binding (tested: 1 µM) | no binding (tested: 1 µM) | 59 |  |  |
| engineered AgRP peptide 2bO (soluble, N-terminal FLAG tag and C-terminal hexahistidine tag) (ends and bridges not checked; cysteine pairing not given here, also called clone 2bO; αIIbβ3-specific peptide 2bO) DYKDDDDKGCVRLHESCLGQQVPCCDPAATCYCKKRGDWKERCYCRHHHHHH |  |  | 110 | no binding (tested: 1 µM) | no binding (tested: 1 µM) | no binding (tested: 1 µM) | 87 |  |  |
| engineered AgRP peptide b3A (soluble, N-terminal FLAG tag and C-terminal hexahistidine tag) (ends and bridges not checked; cysteine pairing not given here, also called clone b3A; β3-specific peptide b3A) DYKDDDDKGCVRLHESCLGQQVPCCDPAATCYCVGRGDVRRKCYCRHHHHHH |  |  | 50 | no binding (tested: 1 µM) |  | no binding (tested: 1 µM) | 42 | ~25 | 23 |
| engineered AgRP peptide b3I (soluble, N-terminal FLAG tag and C-terminal hexahistidine tag) (ends and bridges not checked; cysteine pairing not given here, also called clone b3I; β3-specific peptide b3I) DYKDDDDKGCVRLHESCLGQQVPCCDPAATCYCRGRGDVKLRCYCRHHHHHH |  |  | 66 | no binding (tested: 1 µM) |  | no binding (tested: 1 µM) | 70 | ~25 | 28 |
